Test results reported in paper PMC6239434, “Angiopoietin-4-dependent venous maturation and fluid drainage in the peripheral retina” (eLife, 2018).

How the values were obtained:
TIE2 (Homo sapiens) = TIE2 (Homo sapiens) (UniProt Q02763); conditions: cited from earlier work
[1] = biological target: the molecule itself; test: non-reducing SDS polyacrylamide gel electrophoresis; purified recombinant angiopoietins run under non-reducing and reducing (1% 2-mercaptoethanol) conditions; oligomerization and multimerization states

TIE2 (Homo sapiens), sequence (Q02763 23-748): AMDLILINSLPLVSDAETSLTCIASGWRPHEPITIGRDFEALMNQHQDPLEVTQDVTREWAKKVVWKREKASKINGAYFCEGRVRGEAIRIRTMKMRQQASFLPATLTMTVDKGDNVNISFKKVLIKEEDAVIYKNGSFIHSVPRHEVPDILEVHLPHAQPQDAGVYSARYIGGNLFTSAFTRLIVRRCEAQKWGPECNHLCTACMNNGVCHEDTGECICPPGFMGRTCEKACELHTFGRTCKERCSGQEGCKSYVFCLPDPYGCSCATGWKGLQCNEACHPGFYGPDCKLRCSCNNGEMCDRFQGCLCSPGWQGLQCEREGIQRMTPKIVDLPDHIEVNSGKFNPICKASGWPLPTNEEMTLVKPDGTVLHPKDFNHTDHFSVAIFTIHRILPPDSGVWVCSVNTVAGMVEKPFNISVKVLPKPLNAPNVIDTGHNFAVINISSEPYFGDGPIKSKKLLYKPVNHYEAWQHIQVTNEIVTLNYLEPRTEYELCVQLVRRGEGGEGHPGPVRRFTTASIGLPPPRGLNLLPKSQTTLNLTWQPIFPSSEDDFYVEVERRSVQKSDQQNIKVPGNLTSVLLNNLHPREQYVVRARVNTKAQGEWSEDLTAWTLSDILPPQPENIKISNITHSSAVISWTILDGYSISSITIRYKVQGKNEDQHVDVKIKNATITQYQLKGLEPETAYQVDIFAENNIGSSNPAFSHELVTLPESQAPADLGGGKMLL

Molecule | binding result [1] | also measured
Angiopoietin-1 (from UniProt Q15389) |  | Kd (TIE2 (Homo sapiens)): 3.7 nM
Purified recombinant human ANGPT4 (ligand, UniProt Q9Y264 25-503, looked up, human angiopoietin-4 (ANGPT4), purified recombinant protein from R & D Systems; Forms dimeric and higher oligomeric/multimeric complexes on non-reducing SDS-PAGE; also called angiopoietin-4; source: bought: R & D Systems (purified recombinant)) TRQEADRGCETLVVQHGHCSYTFLLPKSEPCPPGPEVSRDSNTLQRESLANPLHLGKLPTQQVKQLEQALQNNTQWLKKLERAIKTILRSKLEQVQQQMAQNQTAPMLELGTSLLNQTTAQIRKLTDMEAQLLNQTSRMDAQMPETFLSTNKLENQLLLQRQKLQQLQGQNSALEKRLQALETKQQEELASILSKKAKLLNTLSRQSAALTNIERGLRGVRHNSSLLQDQQHSLRQLLVLLRHLVQERANASAPAFIMAGEQVFQDCAEIQRSGASASGVYTIQVSNATKPRKVFCDLQSSGGRWTLIQRRENGTVNFQRNWKDYKQGFGDPAGEHWLGNEVVHQLTRRAAYSLRVELQDWEGHEAYAQYEHFHLGSENQLYRLSVVGYSGSAGRQSSLVLQNTSFSTLDSDNDHCLCKCAQVMSGGWWFDACGLSNLNGVYYHAPDNKYKMDGIRWHYFKGPSYSLRASRMMIRPLDI | binds | 
Purified recombinant human ANGPT2 (ligand, UniProt O15123 19-496, looked up, human angiopoietin-2 (ANGPT2), purified recombinant protein from R & D Systems; Runs predominantly as disulfide-linked dimers on non-reducing SDS-PAGE; also called angiopoietin-2; source: bought: R & D Systems (purified recombinant)) YNNFRKSMDSIGKKQYQVQHGSCSYTFLLPEMDNCRSSSSPYVSNAVQRDAPLEYDDSVQRLQVLENIMENNTQWLMKLENYIQDNMKKEMVEIQQNAVQNQTAVMIEIGTNLLNQTAEQTRKLTDVEAQVLNQTTRLELQLLEHSLSTNKLEKQILDQTSEINKLQDKNSFLEKKVLAMEDKHIIQLQSIKEEKDQLQVLVSKQNSIIEELEKKIVTATVNNSVLQKQQHDLMETVNNLLTMMSTSNSAKDPTVAKEEQISFRDCAEVFKSGHTTNGIYTLTFPNSTEEIKAYCDMEAGGGGWTIIQRREDGSVDFQRTWKEYKVGFGNPSGEYWLGNEFVSQLTNQQRYVLKIHLKDWEGNEAYSLYEHFYLSSEELNYRIHLKGLTGTAGKISSISQPGNDFSTKDGDNDKCICKCSQMLTGGWWFDACGPSNLNGMYYPQRQNTNKFNGIKWYYWKGSGYSLKATTMMIRPADF |  | stoichiometry N [1]: 2
Purified recombinant mouse Angpt4 (ligand, UniProt Q9WVH6 22-509, looked up, mouse angiopoietin-4 (Angpt4, previously named Ang3), purified recombinant protein from R & D Systems; also called angiopoietin-4; Ang3; source: bought: R & D Systems (purified recombinant)) QHRGPEAGGHRQIHQVRRGQCSYTFVVPEPDICQLAPTAAPEALGGSNSLQRDLPASRLHLTDWRAQRAQRAQRVSQLEKILENNTQWLLKLEQSIKVNLRSHLVQAQQDTIQNQTTTMLALGANLMNQTKAQTHKLTAVEAQVLNQTLHMKTQMLENSLSTNKLERQMLMQSRELQRLQGRNRALETRLQALEAQHQAQLNSLQEKREQLHSLLGHQTGTLANLKHNLHALSSNSSSLQQQQQQLTEFVQRLVRIVAQDQHPVSLKTPKPVFQDCAEIKRSGVNTSGVYTIYETNMTKPLKVFCDMETDGGGWTLIQHREDGSVNFQRTWEEYKEGFGNVAREHWLGNEAVHRLTSRTAYLLRVELHDWEGRQTSIQYENFQLGSERQRYSLSVNDSSSSAGRKNSLAPQGTKFSTKDMDNDNCMCKCAQMLSGGWWFDACGLSNLNGIYYSVHQHLHKINGIRWHYFRGPSYSLHGTRMMLRPMGA | binds | 
Purified recombinant human ANGPT1 (ligand, UniProt Q15389 16-498, looked up, human angiopoietin-1 (ANGPT1), purified recombinant protein from R & D Systems; Forms various-sized oligomers/multimers on non-reducing SDS-PAGE; also called angiopoietin-1; source: bought: R & D Systems (purified recombinant)) HIGCSNQRRSPENSGRRYNRIQHGQCAYTFILPEHDGNCRESTTDQYNTNALQRDAPHVEPDFSSQKLQHLEHVMENYTQWLQKLENYIVENMKSEMAQIQQNAVQNHTATMLEIGTSLLSQTAEQTRKLTDVETQVLNQTSRLEIQLLENSLSTYKLEKQLLQQTNEILKIHEKNSLLEHKILEMEGKHKEELDTLKEEKENLQGLVTRQTYIIQELEKQLNRATTNNSVLQKQQLELMDTVHNLVNLCTKEGVLLKGGKREEEKPFRDCADVYQAGFNKSGIYTIYINNMPEPKKVFCNMDVNGGGWTVIQHREDGSLDFQRGWKEYKMGFGNPSGEYWLGNEFIFAITSQRQYMLRIELMDWEGNRAYSQYDRFHIGNEKQNYRLYLKGHTGTAGKQSSLILHGADFSTKDADNDNCMCKCALMLTGGWWFDACGPSNLNGMFYTAGQNHGKLNGIKWHYFKGPSYSLRSTTMMIRPLDF | binds | 
